Assay results from paper PMC6857237.

Assays:
[1] = molecular target: Olfm1^BMY (olfactomedin-1 natural short isoform BMY, residues 17–153), disulfide-linked tetramer (mouse (Mus musculus)); assay: SAXS; ESRF BM29, 0.615 mg/mL in SEC buffer (150 mM NaCl, 2 mM CaCl2, 20 mM HEPES pH 7.5), 277 K; mass from I0
[2] = molecular target: Olfm1^BMY (olfactomedin-1 natural short isoform BMY, residues 17–153), disulfide-linked tetramer (mouse (Mus musculus)); assay: non-reducing SDS-PAGE; Coomassie-stained SDS-PAGE of purified protein with and without DTT; covalent (disulfide-linked) oligomeric state
[3] = molecular target: Olfm1^BMY (olfactomedin-1 natural short isoform BMY, residues 17–153), disulfide-linked tetramer (mouse (Mus musculus)); assay: SEC-MALS; analytical Superdex200 Increase 10/300, room temperature, SEC buffer (150 mM NaCl, 2 mM CaCl2, 20 mM HEPES pH 7.5), 0.5 mL/min; aldolase as calibration standard

Measured: stoichiometry N

Sequence of Olfm1^BMY (olfactomedin-1 natural short isoform BMY, residues 17–153), disulfide-linked tetramer (natural protein) (O88998 17-485): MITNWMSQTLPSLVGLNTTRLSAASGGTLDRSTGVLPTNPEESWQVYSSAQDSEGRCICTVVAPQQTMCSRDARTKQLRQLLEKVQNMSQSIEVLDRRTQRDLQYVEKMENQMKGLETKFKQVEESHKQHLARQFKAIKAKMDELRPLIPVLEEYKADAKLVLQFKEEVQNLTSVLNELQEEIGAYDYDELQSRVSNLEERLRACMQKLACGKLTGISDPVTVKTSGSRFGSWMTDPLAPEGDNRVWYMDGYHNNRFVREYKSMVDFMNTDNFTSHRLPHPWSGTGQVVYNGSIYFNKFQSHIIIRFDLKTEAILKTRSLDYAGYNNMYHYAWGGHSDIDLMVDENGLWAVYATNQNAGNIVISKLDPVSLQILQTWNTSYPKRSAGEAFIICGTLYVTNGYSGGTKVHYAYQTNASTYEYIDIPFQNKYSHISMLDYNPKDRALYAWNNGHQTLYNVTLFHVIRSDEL

Olfm1^BMY (olfactomedin-1 natural short isoform BMY, residues 17–153), disulfide-linked tetramer (natural protein)
4: all assays above
